Legend:
[1] = test system: CocE antibodies; test: Direct ELISA specific for CocE antibodies in serum of mice; format: in vivo, mouse
Protocol: CocE can be used in incomplete Freund's adjuvant (IFA) to immunize mice (see Table 4). A direct ELISA specific for CocE antibodies was set up by a standard protocol. CocE was used (1 ug/ml) to coat a 96-well micro-titer plate using a borate buffered saline (1.5 M NaCl, 0.5 M H3BO3, 1.0 M NaOH) to resuspend the cocaine esterase (50 uL/well). The coating plates was left overnight at 4 C. The coating buffer was removed the following morning and the plates blocked with 2% normal goat serum in PBS for 1 hr at 37 C and washed 3 times. Serum from the various groups of mice was serially diluted in 50 μL of PBS in the wells in a range of 10^2 to […] and run in duplicate. The plates were covered and incubated for 30 minutes at 37 C. Subsequently, the plates were washed 3 times and 50 μL/well of Goat anti-mouse IgG peroxidase labeled antibody diluted 1:400. The plates were then washed 3 times and 100 μL peroxidase substrate solution (OPD dissolved in citratelphosphate buffer) was added to each well. After a 5-10 minute incubation (based upon color development in the positive controls) the reaction was stopped using 3M H2SO4 (50 μL/well). […] Positive controls were derived by immunizing Balb/c mice with 100 μg in 100 μL of Cocaine esterase emulsified in incomplete Freund's adjuvant […] by intraperitoneal (IP) injection. In Positive 1 group the serum was isolated from 2 week immunized mice. In Positive 2 group immunized mice were boosted using 100 μg in 100 μL by IP injection at 2 weeks post-primary immunization and the serum collected after an additional week (3 week post-primary).

[2] = Low-UV CD spectra melt with CCA deconvolution; format: physicochemical; details: for #3 formation: accumulation of the fully melted protein; for #1 melt: initial spectra melts, 0.2 mg/ml; for #2 melt: melt of the intermediate state
Protocol: Low-UV CD spectra data were obtained using an Aviv Spectropolarimeter Mode 400, with the help of Norma Greenfield, UMDNJ, using a 5-cell holder and 0.2 mg/ml protein concentrations. Raw data values obtained were blanked on control PBS, smoothed, and deconvoluted using the CCA algorithm as described by A. Perczel, K. Park, and G. D. Fasman, [Analysis of the circular dichroism spectrum of proteins using the convex constraint algorithm: a practical guide. Analytical Biochemistry 203, 83-93 (1992).] This algorithm finds the minimum number of curves needed to reconstruct a data set, and expresses the percentage each curve contributes to the data set as a function of temperature.
Below is presented a low UV CCA denconvolution analysis of CocE WT and 4 mutants, obtained in a single CD spectra melt using a 5-cell holder. The experiment was performed over the period of 8 hours, from 0-80° C.
Temperature dependent melting was observed between the wavelengths tested (200-250 nm), and the smoothed spectra for each mutant are shown in FIG. 29. […] Dose response analysis was used to approximate the temperature at which the initial spectra melts (1), the formation and melt of the intermediate state (2), and the accumulation of the fully melted protein (3).

[3] = test system: cocaine-induced lethality; test: Rodent model of acute cocaine toxicity (convulsions and lethality) in rats; details: for protection against cocaine-induced lethality: one minute before 180 mg/kg cocaine
[4] = Decay of CocE activity in plasma at 37° C. or after intravenous administration into a mouse; format: in vitro ADME; details: incubation in plasma at 37° C., or after intravenous administration into a mouse
[5] = test system: cocaine-induced lethality; test: Cocaine toxicity in mice, incl. repeated CocE doses; format: in vivo, mouse
Description: The animal toxicity model was similar to that described previously, except as described. Male NIH Swiss mice were used. For tail intravenous injection, mice are placed in a small restraint chamber that exposes their tail. A heat lamp with an infrared, 250 w bulb is placed about 4 inches from the tail, and left for a couple of minutes. The tail is then cleansed with an alcohol wipe and a 30 G ½ precision glide needle (Fisher Scientific), is inserted into one of the side veins for infusion. To verify whether the needle is in the vein a small amount of drug is infused, if in the correct location the solution should infuse easily without any indication of an incorrect subcutaneous location, which appears white at the site of injection. For intravenous catheterization, Male NIH Swiss mice are anesthetized with ketamine 100 mg/kg and xylazine 10 mg/kg co-administered i.p. When mice are no longer responsive to paw pressure, the neck is shaved and prepped by alternating Betadine and alcohol wipes. Under clean conditions, a right transverse neck incision is made and the external jugular vein is isolated. A catheter is inserted into the vein with the aid of a dissecting microscope to the level of the right atrium, and is secured in the vein with nylon, 4-0 sutures and tissue adhesive, 3M Vetbond (3M Animal Care Products, St. Paul, Minn.). The catheters are a short length of Tygon tubing with an inner diameter of 0.010 in. and an outer diameter of 0.030 in. (Small Parts, Inc., Miami Lakes, Fla.). A small incision is made in the middle of the animal's back, and a trocar inserted subcutaneously to exit at the ventral incision site. The catheter is then pulled through the trocar and brought out the animal's back where it is held in place with nylon suture material and the tissue adhesive. A short piece of steel wire with a diameter of 0.011 in. (Small Parts, Inc., Miami Lakes, Fla.) is inserted into the end of the catheter. The ventral incision is closed with 4-0 Vicryl suture material and the mouse placed under a heat lamp for recovery. Approximately an hour later, the mouse is returned to its home cage.
Mice that survived a first administration of the combination of 0.32 mg CocE and 320 mg/kg cocaine were given this combination again, 14 days following the initial administration.

[6] = Thermal stability: preincubation at 37° C., activity measured at RT (25° C.); format: physicochemical; details: wild type
Protocol: Thermally stable mutant CocE polypeptides were identified by determining 1/2 of the mutant CocE polypeptides. Briefly, enzymes were preincubated at 37° C. for varying times. Activity measurements were determined at RT (25° C.). Mutant enzymes with 1/2 of greater than 12 minutes (the 1/2 of wild type CocE) were considered thermally stable (See, e.g., FIG. 27 and Table 7).

[7] = cocaethylene; cited from earlier work
[8] = 1.0 mg i.v. one minute after cocaine i.p., rats

B1: CocE: wild-type cocaine esterase of Rhodococcus sp. MB 1, SEQ ID NO: 1, Accession No. AF173165 (protein)
chain: MVDGNYSVASNVMVPMRDGVRLAVDLYRPDADGPVPVLLVRNPYDKFDVFAWSTQSTNWLEFVRDGYAVVIQDTRGLFASEGEFVPHVDDEADAEDTLSWILEQAWCDGNVGMFGVSYLGVTQWQAAVSGVGGLKAIAPSMASADLYRAPWYGPGGALSVEALLGWSALIGTGLITSRSDARPEDAADFVQLAAILNDVAGAASVTPLAEQPLLGRLIPWVIDQVVDHPDNDESWQSISLFERLGGLATPALITAGWYDGFVGESLRTFVAVKDNADARLVVGPWSHSNLTGRNADRKFGIAATYPIQEATTMHKAFFDRHLRGETDALAGVPKVRLFVMGIDEWRDETDWPLPDTAYTPFYLGGSGAANTSTGGGTLSTSISGTESADTYLYDPADPVPSLGGTLLFHNGDNGPADQRPIHDRDDVLCYSTEVLTDPVEVTGTVSARLFVSSSAVDTDFTAKLVDVFPDGRAIALCDGIVRMRYRETLVNPTLIEAGEIYEVAIDMLATSNVFLPGHRIMVQVSSSNFPKYDRNSNTGGVIAREQLEEMCTAVNRIHRGPEHPSHIVLPIIKR
modifications: Rhodococcus sp. MB1
Titer (log10 dilution +/− SE) ([1]; Challenged and Treated (3x), CocE given with cocaine): 3.33 +/− 0.333
Titer (log10 dilution +/− SE) ([1]; Challenged and Treated (4x), CocE given with cocaine): 3.5 +/− 0.5
antibody titers ([1]; CocE i.v. during cocaine challenges): detectable but relatively low titers
antibody titer ([1]; CocE/IFA with an additional boost): 10^6
Titer (log10 dilution +/− SE) ([1]; Positive 1 (n = 3) 2 weeks, Immunized (IFA/IP)): 5
Titer (log10 dilution +/− SE) ([1]; Positive 2 (n = 3) 3 weeks, Immunized/Boost (IFA/IP)): 6
antibody titer ([1]; immunized once with CocE/IFA): 10^5
#3 formation [2]: 59 °C
#3 formation ([2]; listed as WT): 59.86 °C
#2 formation ([2]; formation of the intermediate state): 34.57 °C
#1 melt [2]: 37 °C
#1 melt ([2]; listed as WT): 37.04 °C
#2 melt [2]: 50 °C
#2 melt ([2]; listed as WT): 50.98 °C
protection against cocaine-induced lethality ([3]; 0.1 mg): no protection
lethality ([3]; 0.32 mg i.v. one minute after 1 g/kg cocaine i.p., rats): 100%
rats saved ([3]; 1 mg CocE 1 minute before cocaine (100 mg/kg)): 100%
rats survived ([3]; 1 mg CocE 30 minutes before cocaine (100 mg/kg)): 66%
protective effects ([3]; 1 mg CocE 100 min prior to cocaine): eliminated
rats survived ([3]; 1 mg CocE '1 minutes' before cocaine as printed (100 mg/kg)): 32%
time after the LD100 dose of cocaine at which the enzyme provided protection ([3]; 1 mg CocE, 100 mg/kg cocaine): up to 6 minutes
cocaine dose required to surmount the protective properties [3, 8]: 1000 mg/kg
shift in the cocaine-toxicity dose effect curve [3, 8]: ten-fold shift
protection against cocaine-induced lethality ([3]; 1 mg): 100%
duration of anti-cocaine effect ([3]; preliminary studies in rats): more than 30 minutes
decay of CocE activity [4]: > 50%
survival on second administration ([5]; 0.32 mg CocE and 320 mg/kg cocaine, 14 days following the initial administration): All of the mice survived
survival on third administration ([5]; 0.32 mg CocE and 320 mg/kg cocaine, 21 days following the first dose): All mice also survived
time to death (average) ([5]; 1.0 gm/kg cocaine plus 1.0 mg of CocE, mice): 28 min
shift in the potency of cocaine in producing death ([5]; both 0.32 and 1.O 'mg/kg cocaine' as printed, mice): dramatic shift to the right
1/2 (t1/2) at 37° C. [6]: 12 min
Kcat [7]: 9.4 s⁻¹
Km [7]: 1.6 µM

— patent publication US9200265B2, “Anti-cocaine compositions and treatment” (priority 2006, dated 2015)
